Source: paper PMC10491584, “Structural convergence endows nuclear transport receptor Kap114p with a transcriptional repressor function toward TATA-binding protein” (Nature Communications, 2023)

Experiments:
Kap114p (Q597A) = biological target: T1, Kap114p (Q597A) (S. cerevisiae, UniProt P53067 1-1004, Q597A); assay: ITC; MicroCal iTC200, 25 °C, 20 mM HEPES pH 7.4, 150 mM NaCl; high concentration: 50 µM wild type or mutant Kap114p in the sample cell, 500 µM wild type or mutant yTBPC in the syringe; triplicate; settings: both partners purified
T1 construct: Kap114p, S. cerevisiae, full length with Q597A; also called GST-Kap114p (Q597); source: E. coli Rosetta, purified (GST resin, MonoQ, Superdex 200)
T1 sequence (looked up): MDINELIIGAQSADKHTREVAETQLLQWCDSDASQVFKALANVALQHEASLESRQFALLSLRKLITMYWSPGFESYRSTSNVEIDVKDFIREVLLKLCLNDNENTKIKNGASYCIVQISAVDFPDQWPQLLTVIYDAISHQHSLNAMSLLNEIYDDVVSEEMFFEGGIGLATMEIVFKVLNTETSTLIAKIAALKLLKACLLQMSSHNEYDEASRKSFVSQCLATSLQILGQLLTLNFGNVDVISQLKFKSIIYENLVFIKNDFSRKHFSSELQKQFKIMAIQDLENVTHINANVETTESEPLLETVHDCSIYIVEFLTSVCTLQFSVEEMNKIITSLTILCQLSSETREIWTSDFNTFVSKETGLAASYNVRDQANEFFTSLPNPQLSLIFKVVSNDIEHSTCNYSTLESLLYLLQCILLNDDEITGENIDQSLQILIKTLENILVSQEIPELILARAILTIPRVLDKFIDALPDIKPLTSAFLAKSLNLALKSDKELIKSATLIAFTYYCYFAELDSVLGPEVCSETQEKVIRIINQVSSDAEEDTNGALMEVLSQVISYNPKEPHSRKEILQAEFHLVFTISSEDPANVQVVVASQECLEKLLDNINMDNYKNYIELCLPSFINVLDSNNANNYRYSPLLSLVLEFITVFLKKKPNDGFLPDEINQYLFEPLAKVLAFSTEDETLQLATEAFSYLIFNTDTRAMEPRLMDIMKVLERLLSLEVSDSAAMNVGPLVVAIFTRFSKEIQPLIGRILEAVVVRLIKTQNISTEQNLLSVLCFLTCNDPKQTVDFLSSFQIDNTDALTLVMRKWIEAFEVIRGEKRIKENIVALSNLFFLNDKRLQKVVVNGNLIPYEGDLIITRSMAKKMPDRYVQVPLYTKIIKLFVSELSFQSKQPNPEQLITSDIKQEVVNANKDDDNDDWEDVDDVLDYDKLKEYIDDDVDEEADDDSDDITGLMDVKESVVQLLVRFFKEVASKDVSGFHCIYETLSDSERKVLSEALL

Kap114pΔ(Y939) = biological target: T2, Kap114pΔ(Y939) (S. cerevisiae, UniProt P53067 1-1004, ΔY939); assay: as above; settings: both partners purified
T2 construct: Kap114p, S. cerevisiae, full length with residue Y939 deleted; also called GST-Kap114p (Δ939); source: E. coli Rosetta, purified (GST resin, MonoQ, Superdex 200)
T2 sequence (looked up): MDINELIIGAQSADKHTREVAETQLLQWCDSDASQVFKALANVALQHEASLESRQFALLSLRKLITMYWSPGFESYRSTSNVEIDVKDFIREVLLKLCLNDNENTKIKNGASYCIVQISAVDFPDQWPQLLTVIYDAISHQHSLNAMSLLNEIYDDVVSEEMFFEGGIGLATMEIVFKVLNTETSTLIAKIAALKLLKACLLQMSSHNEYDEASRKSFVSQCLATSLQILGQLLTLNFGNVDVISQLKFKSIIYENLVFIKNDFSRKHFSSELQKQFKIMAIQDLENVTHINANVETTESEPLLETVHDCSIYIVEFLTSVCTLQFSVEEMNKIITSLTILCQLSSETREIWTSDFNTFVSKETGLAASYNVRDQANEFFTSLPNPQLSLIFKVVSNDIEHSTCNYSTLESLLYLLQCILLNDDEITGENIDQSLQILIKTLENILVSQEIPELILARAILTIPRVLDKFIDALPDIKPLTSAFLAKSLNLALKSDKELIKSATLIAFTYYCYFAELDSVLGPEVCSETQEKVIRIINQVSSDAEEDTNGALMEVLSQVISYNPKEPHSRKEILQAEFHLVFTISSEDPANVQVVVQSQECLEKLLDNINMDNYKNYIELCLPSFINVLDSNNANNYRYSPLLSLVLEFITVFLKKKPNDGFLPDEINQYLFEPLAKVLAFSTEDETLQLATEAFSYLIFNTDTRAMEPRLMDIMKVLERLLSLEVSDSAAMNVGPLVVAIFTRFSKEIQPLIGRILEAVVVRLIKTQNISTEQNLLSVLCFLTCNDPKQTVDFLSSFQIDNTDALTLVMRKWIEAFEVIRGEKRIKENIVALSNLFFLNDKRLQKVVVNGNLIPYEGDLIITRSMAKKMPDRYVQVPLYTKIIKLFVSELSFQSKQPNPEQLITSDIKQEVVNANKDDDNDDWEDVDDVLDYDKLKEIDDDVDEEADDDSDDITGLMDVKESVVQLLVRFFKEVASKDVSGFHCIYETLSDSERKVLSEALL

B1: yTBP^C wild type (core domain of yeast TATA-box binding protein, a.a. 61-240) (domain or fragment, S. cerevisiae, UniProt P13393 61-240, looked up)
chain: SGIVPTLQNIVATVTLGCRLDLKTVALHARNAEYNPKRFAAVIMRIREPKTTALIFASGKMVVTGAKSEDDSKLASRKYARIIQKIGFAAKFTDFKIQNIVGSCDVKFPIRLEGLAFSHGTFSSYEPELFPGLIYRMVKPKIVLLIFVSGKIVLTGAKQREEIYQAFEAIYPVLSEFRKM
notes: modified pET28a, 6xHis tag followed by a PreScission site; also called yTBPC WT; His-yTBP (61-240); source: E. coli Rosetta, purified (Ni-NTA, HiTrap SP, Superdex 75); not shown: His6, N-terminal, cleaved
- Kd (Kap114p (Q597A)): 7.4 nM
- Kd (Kap114pΔ(Y939)): 37.1 nM
